{
  "source": "patent US20040059519A1",
  "key": {"Alpha fetoprotein [1]": {"target": "Alpha fetoprotein (UniProt P02771)", "sequence (P02771 19-609 limits assumed)": "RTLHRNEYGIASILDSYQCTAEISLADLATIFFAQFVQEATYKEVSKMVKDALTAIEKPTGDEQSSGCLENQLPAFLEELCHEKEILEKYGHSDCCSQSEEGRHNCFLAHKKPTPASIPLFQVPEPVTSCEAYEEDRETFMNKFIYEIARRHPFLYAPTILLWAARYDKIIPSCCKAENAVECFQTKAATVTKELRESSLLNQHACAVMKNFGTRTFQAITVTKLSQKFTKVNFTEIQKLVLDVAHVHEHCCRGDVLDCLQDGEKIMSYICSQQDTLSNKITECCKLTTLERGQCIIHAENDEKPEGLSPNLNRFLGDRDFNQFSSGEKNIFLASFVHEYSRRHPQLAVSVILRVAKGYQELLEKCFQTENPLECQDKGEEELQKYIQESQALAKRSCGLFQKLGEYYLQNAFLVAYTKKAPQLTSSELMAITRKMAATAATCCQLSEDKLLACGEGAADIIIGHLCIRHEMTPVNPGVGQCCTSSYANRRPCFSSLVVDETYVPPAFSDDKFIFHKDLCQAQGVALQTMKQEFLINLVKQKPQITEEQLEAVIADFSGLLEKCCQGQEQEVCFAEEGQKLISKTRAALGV", "assay": "multiplex sandwich, S10473 capture beads; AFP 16 ng/mL, washed"}, "Alpha fetoprotein [2]": {"target": "Alpha fetoprotein (UniProt P02771)", "assay": "multiplex sandwich, S10473 capture beads; AFP 2 ng/mL, no wash"}, "[3]": {"target": "Human chorionic gonadotropin (human) (UniProt P01215)", "sequence (P01215 25-116, chain 1 of 2, other chains not shown)": "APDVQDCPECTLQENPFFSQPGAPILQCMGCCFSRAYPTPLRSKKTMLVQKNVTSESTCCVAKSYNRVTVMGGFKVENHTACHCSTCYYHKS", "assay": "anti-AFP capture beads, flow cytometry; hCG 10.0 ng/mL, anti-AFP probe"}, "Alpha fetoprotein [4]": {"target": "Alpha fetoprotein (UniProt P02771)", "assay": "multiplex sandwich, S10473 capture beads; AFP 0.5 ng/mL, no wash"}, "Alpha fetoprotein [5]": {"target": "Alpha fetoprotein (UniProt P02771)", "assay": "anti-AFP capture beads, flow cytometry; AFP 0.0 ng/mL, anti-AFP probe"}, "Alpha fetoprotein [6]": {"target": "Alpha fetoprotein (UniProt P02771)", "assay": "multiplex sandwich, S10473 capture beads; AFP 0.25 ng/mL, no wash"}, "[7]": {"target": "Human chorionic gonadotropin (human) (UniProt P01215)", "assay": "anti-AFP capture beads, flow cytometry; hCG 0.1 ng/mL, anti-AFP probe"}, "[8]": {"target": "Neutravidin (deglycosylated avidin) (UniProt P02701)", "sequence (P02701 25-152 limits assumed)": "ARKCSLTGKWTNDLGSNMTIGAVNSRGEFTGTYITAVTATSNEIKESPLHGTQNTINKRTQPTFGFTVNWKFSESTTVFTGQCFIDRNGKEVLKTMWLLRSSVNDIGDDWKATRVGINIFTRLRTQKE", "assay": "multiplex, Neutravidin bead 60/70 without peptide, flow cytometry"}, "Peptide 6 …-biotin": {"target": "Peptide 6 …-biotin", "assay": "multiplex peptide beads, flow cytometry; antibody pre-mixed with soluble HYGSLPQK 10 ug/mL (competitor m18)"}, "Peptide 7 …-biotin": {"target": "Peptide 7 …-biotin", "assay": "multiplex peptide beads, flow cytometry; antibody pre-mixed with soluble HYGSLPQK 10 ug/mL (competitor m18)"}, "Peptide 8 …-biotin [9]": {"target": "Peptide 8 …-biotin", "assay": "multiplex peptide beads, flow cytometry; antibody pre-mixed with soluble HYGSLPQK 10 ug/mL (competitor m18)"}, "[10]": {"target": "Peptide 5 …-biotin (human)", "assay": "multiplex peptide beads, flow cytometry; antibody pre-mixed with soluble HYGSLPQK 10 ug/mL (competitor m18)"}, "Peptide 4 …-biotin [11]": {"target": "Peptide 4 …-biotin", "assay": "multiplex peptide beads, flow cytometry; antibody pre-mixed with soluble HYGSLPQK 10 ug/mL (competitor m18)"}, "Peptide 9 …-biotin [12]": {"target": "Peptide 9 …-biotin", "assay": "multiplex peptide beads, flow cytometry; antibody pre-mixed with soluble HYGSLPQK 10 ug/mL (competitor m18)"}, "Peptide 3 …-biotin [13]": {"target": "Peptide 3 …-biotin", "assay": "multiplex peptide beads, flow cytometry; antibody pre-mixed with soluble HYGSLPQK 10 ug/mL (competitor m18)"}, "Peptide 1 …-biotin [14]": {"target": "Peptide 1 …-biotin", "assay": "multiplex peptide beads, flow cytometry; antibody pre-mixed with soluble HYGSLPQK 10 ug/mL (competitor m18)"}, "Peptide 2 …-biotin [15]": {"target": "Peptide 2 …-biotin", "assay": "multiplex peptide beads, flow cytometry; antibody pre-mixed with soluble HYGSLPQK 10 ug/mL (competitor m18)"}, "Peptide 8 …-biotin [16]": {"target": "Peptide 8 …-biotin", "assay": "multiplex 9-peptide bead set, flow cytometry; MAB 384-Bodipy 15.5 ug/mL"}, "[17]": {"target": "Peptide 5 …-biotin (human)", "assay": "multiplex 9-peptide bead set, flow cytometry; MAB 384-Bodipy 15.5 ug/mL"}, "Peptide 4 …-biotin [18]": {"target": "Peptide 4 …-biotin", "assay": "multiplex 9-peptide bead set, flow cytometry; MAB 384-Bodipy 15.5 ug/mL"}, "Peptide 9 …-biotin [19]": {"target": "Peptide 9 …-biotin", "assay": "multiplex 9-peptide bead set, flow cytometry; MAB 384-Bodipy 15.5 ug/mL"}, "Peptide 3 …-biotin [20]": {"target": "Peptide 3 …-biotin", "assay": "multiplex 9-peptide bead set, flow cytometry; MAB 384-Bodipy 15.5 ug/mL"}, "Peptide 1 …-biotin [21]": {"target": "Peptide 1 …-biotin", "assay": "multiplex 9-peptide bead set, flow cytometry; MAB 384-Bodipy 15.5 ug/mL"}, "Peptide 2 …-biotin [22]": {"target": "Peptide 2 …-biotin", "assay": "multiplex 9-peptide bead set, flow cytometry; MAB 384-Bodipy 15.5 ug/mL"}, "[23]": {"target": "Human chorionic gonadotropin (human) (UniProt P01215)", "assay": "MAB602 capture beads, flow cytometry; hCG 0.1 ng/mL, anti-hCG probe"}, "Alpha fetoprotein [24]": {"target": "Alpha fetoprotein (UniProt P02771)", "assay": "anti-AFP capture beads, flow cytometry; AFP 1.0 ng/mL, anti-hCG probe"}, "Alpha fetoprotein [25]": {"target": "Alpha fetoprotein (UniProt P02771)", "assay": "MAB602 capture beads, flow cytometry; AFP 0.1 ng/mL, anti-hCG probe"}, "[26]": {"target": "Human chorionic gonadotropin (human) (UniProt P01215)", "assay": "multiplex sandwich, MAB602 capture beads; hCG 16 ng/mL, no wash"}, "[27]": {"target": "Human chorionic gonadotropin (human) (UniProt P01215)", "assay": "multiplex sandwich, MAB602 capture beads; hCG 0.5 ng/mL, washed"}, "[28]": {"target": "Human chorionic gonadotropin (human) (UniProt P01215)", "assay": "multiplex sandwich, MAB602 capture beads; hCG 8 ng/mL, no wash"}, "[29]": {"target": "Human chorionic gonadotropin (human) (UniProt P01215)", "assay": "sandwich, MAB602 capture beads, flow cytometry; hCG 200 ng/mL"}, "[30]": {"target": "Human chorionic gonadotropin (human) (UniProt P01215)", "assay": "multiplex sandwich, MAB602 capture beads; hCG 250 ng/mL, washed"}, "[31]": {"target": "Human chorionic gonadotropin (human) (UniProt P01215)", "assay": "multiplex sandwich, MAB602 capture beads; hCG 0 ng/mL, washed"}, "[32]": {"target": "Human chorionic gonadotropin (human) (UniProt P01215)", "assay": "sandwich, MAB602 capture beads, flow cytometry; hCG 2000 ng/mL"}, "[33]": {"target": "Human chorionic gonadotropin (human) (UniProt P01215)", "assay": "bead sandwich, flow cytometry; capture A2 (MAB 602) beads, no hCG (background)"}, "[34]": {"target": "Human chorionic gonadotropin (human) (UniProt P01215)", "assay": "sandwich, MAB602 capture beads, flow cytometry; hCG 20000 ng/mL"}, "[35]": {"target": "Human chorionic gonadotropin (human) (UniProt P01215)", "assay": "multiplex sandwich, MAB602 capture beads; hCG 2 ng/mL, washed"}, "[36]": {"target": "Human chorionic gonadotropin (human) (UniProt P01215)", "assay": "MAB602 capture beads, flow cytometry; hCG 0.0 ng/mL, anti-hCG probe"}, "[37]": {"target": "Human chorionic gonadotropin (human) (UniProt P01215)", "assay": "multiplex sandwich, MAB602 capture beads; hCG 16 ng/mL, washed"}, "[38]": {"target": "Human chorionic gonadotropin (human) (UniProt P01215)", "assay": "multiplex sandwich, MAB602 capture beads; hCG 250 ng/mL, no wash"}, "[39]": {"target": "Human chorionic gonadotropin (human) (UniProt P01215)", "assay": "multiplex sandwich, MAB602 capture beads; hCG 1000 ng/mL, no wash"}},
  "note": "“And” between values parts separate entries of the source, which are not always exact repeats. Equal entries are not always repeated.",
  "data": [
    {"substance": "M20077 affinity purified polyclonal anti-AFP antibody, Bodipy FL-CASE labeled", "values": [
      {"measurement": "MIF of Fm", "setting": "Alpha fetoprotein [1]", "result": 347},
      {"measurement": "MIF of Fm", "setting": "Alpha fetoprotein [2]", "result": 51},
      {"measurement": "MIF of Fm", "setting": "[3]", "result": 45},
      {"measurement": "MIF of Fm", "setting": "Alpha fetoprotein [4]", "result": 24},
      {"measurement": "MIF of Fm", "setting": "Alpha fetoprotein [5]", "result": 45},
      {"measurement": "MIF of Fm", "setting": "Alpha fetoprotein [6]", "result": 17},
      {"measurement": "MIF of Fm", "setting": "[7]", "result": 49}
    ]},
    {"substance": "MAB 384, Bodipy FL-X labeled (antibody)", "values": [
      {"measurement": "MIF of Fm", "setting": "[8]", "result": 36},
      {"measurement": "MIF of Fm", "setting": "Peptide 6 …-biotin", "result": 15},
      {"measurement": "MIF of Fm", "setting": "Peptide 7 …-biotin", "result": 11},
      {"measurement": "MIF of Fm", "setting": "Peptide 8 …-biotin [9]", "result": 9},
      {"measurement": "MIF of Fm", "setting": "[10]", "result": 53},
      {"measurement": "MIF of Fm", "setting": "Peptide 4 …-biotin [11]", "result": 13},
      {"measurement": "MIF of Fm", "setting": "Peptide 9 …-biotin [12]", "result": 17},
      {"measurement": "MIF of Fm", "setting": "Peptide 3 …-biotin [13]", "result": 12},
      {"measurement": "MIF of Fm", "setting": "Peptide 1 …-biotin [14]", "result": 4},
      {"measurement": "MIF of Fm", "setting": "Peptide 2 …-biotin [15]", "result": 7},
      {"measurement": "MIF of Fm", "setting": "Peptide 8 …-biotin [16]", "result": 32},
      {"measurement": "MIF of Fm", "setting": "[17]", "result": 1350},
      {"measurement": "MIF of Fm", "setting": "Peptide 4 …-biotin [18]", "result": 35},
      {"measurement": "MIF of Fm", "setting": "Peptide 9 …-biotin [19]", "result": 29},
      {"measurement": "MIF of Fm", "setting": "Peptide 3 …-biotin [20]", "result": 36},
      {"measurement": "MIF of Fm", "setting": "Peptide 1 …-biotin [21]", "result": 28},
      {"measurement": "MIF of Fm", "setting": "Peptide 2 …-biotin [22]", "result": 36}
    ]},
    {"substance": "AB633 affinity purified polyclonal anti-hCG antibody, Bodipy FL-CASE labeled", "values": [
      {"measurement": "MIF of Fm", "setting": "[23]", "result": 55},
      {"measurement": "MIF of Fm", "setting": "Alpha fetoprotein [24]", "result": 50},
      {"measurement": "MIF of Fm", "setting": "Alpha fetoprotein [25]", "result": 52},
      {"measurement": "MIF of Fm", "setting": "[26]", "result": 2440},
      {"measurement": "MIF of Fm", "setting": "[27]", "result": 175},
      {"measurement": "MIF of Fm", "setting": "[28]", "result": 1760},
      {"measurement": "MIF of Fm", "setting": "[29]", "result": "9230 and 9400"},
      {"measurement": "MIF of Fm", "setting": "[30]", "result": 2760},
      {"measurement": "MIF of Fm", "setting": "[31]", "result": 18},
      {"measurement": "MIF of Fm", "setting": "[32]", "result": "9290 and 9390"},
      {"measurement": "MIF of Fm", "setting": "[33]", "result": 163},
      {"measurement": "MIF of Fm", "setting": "[34]", "result": "9340 and 9220"},
      {"measurement": "MIF of Fm", "setting": "[35]", "result": 547},
      {"measurement": "MIF of Fm", "setting": "[36]", "result": 48},
      {"measurement": "MIF of Fm", "setting": "[37]", "result": 2530},
      {"measurement": "MIF of Fm", "setting": "[38]", "result": 1520},
      {"measurement": "MIF of Fm", "setting": "[39]", "result": 770}
    ]}
  ]
}
